From IntAct's records for PubMed 20059542 come the findings set out here.

Sequences and labels used below:
B1: Ubiquitin domain-containing protein DSK2 (Saccharomyces cerevisiae), P48510 (parent)
chain: MSLNIHIKSGQDKWEVNVAPESTVLQFKEAINKANGIPVANQRLIYSGKILKDDQTVESYHIQDGHSVHLVKSQPKPQTASAAGANNATATGAAAGTGATPNMSSGQSAGFNPLADLTSARYAGYLNMPSADMFGPDGGALNNDSNNQDELLRMMENPIFQSQMNEMLSNPQMLDFMIQSNPQLQAMGPQARQMLQSPMFRQMLTNPDMIRQSMQFARMMDPNAGMGSAGGAASAFPAPGGDAPEEGSNTNTTSSSNTGNNAGTNAGTNAGANTAANPFASLLNPALNPFANAGNAASTGMPAFDPALLASMFQPPVQASQAEDTRPPEERYEHQLRQLNDMGFFDFDRNVAALRRSGGSVQGALDSLLNGDV
partner: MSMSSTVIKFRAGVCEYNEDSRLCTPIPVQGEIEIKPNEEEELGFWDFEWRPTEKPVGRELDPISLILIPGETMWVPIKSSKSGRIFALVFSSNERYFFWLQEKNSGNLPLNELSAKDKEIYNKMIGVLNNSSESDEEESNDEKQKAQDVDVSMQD
B2: 26S proteasome regulatory subunit RPN10 (Saccharomyces cerevisiae), P38886 (parent)
chain: MVLEATVLVIDNSEYSRNGDFPRTRFEAQIDSVEFIFQAKRNSNPENTVGLISGAGANPRVLSTFTAEFGKILAGLHDTQIEGKLHMATALQIAQLTLKHRQNKVQHQRIVAFVCSPISDSRDELIRLAKTLKKNNVAVDIINFGEIEQNTELLDEFIAAVNNPQEETSHLLTVTPGPRLLYENIASSPIILEEGSSGMGAFGGSGGDSDANGTFMDFGVDPSMDPELAMALRLSMEEEQQRQERLRQQQQQQDQPEQSEQPEQHQDK
B3: 26S proteasome non-ATPase regulatory subunit 4 homolog (Arabidopsis thaliana (Mouse-ear cress)), P55034 (parent)
chain: MVLEATMICIDNSEWMRNGDYSPSRLQAQTEAVNLLCGAKTQSNPENTVGILTMAGKGVRVLTTPTSDLGKILACMHGLDVGGEINLTAAIQIAQLALKHRQNKNQRQRIIVFAGSPIKYEKKALEIVGKRLKKNSVSLDIVNFGEDDDEEKPQKLEALLTAVNNNDGSHIVHVPSGANALSDVLLSTPVFTGDEGASGYVSAAAAAAAAGGDFDFGVDPNIDPELALALRVSMEEERARQEAAAKKAADEAGQKDKDGDTASASQETVARTTDKNAEPMDEDSALLDQAIAMSVGDVNMSEAADEDQDLALALQMSMSGEESSEATGAGNNLLGNQAFISSVLSSLPGVDPNDPAVKELLASLPDESKRTEEEESSSKKGEDEKK

In the first assay the parent is B1. The conditions noted are these: with rpn13_yeast RPN13, O13563.
Turning to I45A, the “effect of a mutation on the interaction” value is recorded as “disrupting interaction”.

In a further assay the parent is B1. The conditions noted are these: with rpn13_yeast RPN13, O13563. The source holds these as a separate data set.
As to I45A, the “effect of a mutation on the interaction” value is on record as “disrupting interaction strength”.
Still for that read-out and setting: then L44A;I45A, with “disrupting interaction strength”; and L70A, with “decreasing interaction strength”; and L44A, with “disrupting interaction strength”.
On the same count and under the same terms, for L70A;V71A the value was “decreasing interaction strength”; for V71A, “decreasing interaction strength”.

The variants in another assay derive from B1. The conditions noted are these: with rpn13_yeast RPN13, O13563. This is another data set of the same source.
L70A: the “effect of a mutation on the interaction” value is listed as “decreasing interaction”.

Variants of B1 are the subject of a further assay. The conditions noted are these: with rpn13_yeast RPN13, O13563. The source holds these as a separate data set.
With L44A, the “effect of a mutation on the interaction” value is given as “disrupting interaction”.

Another assay covers variants of B1. The conditions noted are these: with rpn13_yeast RPN13, O13563. The source holds these as a separate data set.
With V71A, the “effect of a mutation on the interaction” value was “decreasing interaction”.

The next assay covers variants of B2. The conditions noted are these: with dsk2_yeast DSK2, P48510.
Turning to L228N;A229N;M230N;A231N;L232N, the “effect of a mutation on the interaction” value is listed as “disrupting interaction strength”.

The variants in another assay derive from B2. The conditions noted are these: with ubql2_human UBQLN2, Q9UHD9.
Target sequence in this assay (Q9UHD9 whole entry): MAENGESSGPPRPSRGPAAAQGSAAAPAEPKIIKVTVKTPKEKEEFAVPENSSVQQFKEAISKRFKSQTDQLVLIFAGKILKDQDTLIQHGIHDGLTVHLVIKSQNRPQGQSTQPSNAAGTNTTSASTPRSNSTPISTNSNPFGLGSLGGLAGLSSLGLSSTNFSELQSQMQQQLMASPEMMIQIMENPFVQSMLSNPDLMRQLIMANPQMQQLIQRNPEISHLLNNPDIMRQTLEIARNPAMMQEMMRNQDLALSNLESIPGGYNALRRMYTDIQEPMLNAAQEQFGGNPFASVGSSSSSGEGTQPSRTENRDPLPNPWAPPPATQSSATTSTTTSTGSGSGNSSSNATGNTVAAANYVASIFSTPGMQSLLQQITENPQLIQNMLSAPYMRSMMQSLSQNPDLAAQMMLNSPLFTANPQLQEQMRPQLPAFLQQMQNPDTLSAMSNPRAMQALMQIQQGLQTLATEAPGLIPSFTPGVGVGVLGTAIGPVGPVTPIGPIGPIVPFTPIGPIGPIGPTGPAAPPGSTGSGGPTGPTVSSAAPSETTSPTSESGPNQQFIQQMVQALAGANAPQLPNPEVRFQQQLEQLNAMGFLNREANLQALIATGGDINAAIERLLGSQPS
Turning to L228N;A229N;M230N;A231N;L232N, the “effect of a mutation on the interaction” value was “disrupting interaction strength”.

The variants in the next assay derive from B3. The conditions noted are these: with dsk2_yeast DSK2, P48510.
As for L286N;L287N;Q289N;A290D, the “effect of a mutation on the interaction” value is reported as “with no effect”.
Still for that read-out and setting: for L286N;L287N;Q289N;A290D;L310N;A311N;L312N;A313D;L314N the value was “with no effect”.
The same measure, in the same setting: then L226D;A227D;L228D;A229D;L230D, with “disrupting interaction strength”.

A further assay covers variants of B3. The conditions noted are these: with ubql2_human UBQLN2, Q9UHD9.
Target sequence in this assay (Q9UHD9 whole entry): as above
Regarding L286N;L287N;Q289N;A290D, the “effect of a mutation on the interaction” value is on record as “with no effect”.
On the same count and under the same terms, for L286N;L287N;Q289N;A290D;L310N;A311N;L312N;A313D;L314N the value was “with no effect”.
Regarding L226D;A227D;L228D;A229D;L230D, the “effect of a mutation on the interaction” value is on record as “disrupting interaction strength”.

In the next assay the parent is B3. The conditions noted are these: with rd23b_human RAD23B.
L286N;L287N;Q289N;A290D: the “effect of a mutation on the interaction” value was “with no effect”.
On to L286N;L287N;Q289N;A290D;L310N;A311N;L312N;A313D;L314N, for which the “effect of a mutation on the interaction” value was “disrupting interaction strength”.
Regarding L226D;A227D;L228D;A229D;L230D, the “effect of a mutation on the interaction” value is listed as “with no effect”.
The same measure, in the same setting: for L226D;A227D;L228D;A229D;L230D;L310N;A311N;L312N;A313D;L314N the value was “disrupting interaction strength”.
The same measure, in the same setting: for L226D;A227D;L228D;A229D;L230D;L286N;L287N;Q289N;A290D the value was “decreasing interaction strength”.
